Measurements from patent publication US20260139048A1 (NANJING LEGEND BIOTECH, published 2026).
Like-named read-outs stand apart in the source and are kept apart here.

T1: human TIGIT expressed on CHO-K1 cells (human, UniProt Q495A1 22-244)
T1 construct: whole, on cells; also called human TIGIT-CHO-K1 cells; human TIGIT over-expressing cell line
T1 sequence (looked up): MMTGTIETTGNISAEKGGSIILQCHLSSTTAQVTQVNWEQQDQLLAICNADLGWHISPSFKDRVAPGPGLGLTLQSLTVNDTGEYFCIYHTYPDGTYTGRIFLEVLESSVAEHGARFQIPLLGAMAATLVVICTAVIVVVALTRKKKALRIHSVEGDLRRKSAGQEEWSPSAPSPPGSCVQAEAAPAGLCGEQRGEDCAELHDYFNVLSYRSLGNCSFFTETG

T2: TIGIT on TIGIT-over expressing NFAT-Luc/Jurkat effector cells (GenScript reporter cell line) (UniProt Q495A1 22-244, limits assumed)
T2 sequence (looked up): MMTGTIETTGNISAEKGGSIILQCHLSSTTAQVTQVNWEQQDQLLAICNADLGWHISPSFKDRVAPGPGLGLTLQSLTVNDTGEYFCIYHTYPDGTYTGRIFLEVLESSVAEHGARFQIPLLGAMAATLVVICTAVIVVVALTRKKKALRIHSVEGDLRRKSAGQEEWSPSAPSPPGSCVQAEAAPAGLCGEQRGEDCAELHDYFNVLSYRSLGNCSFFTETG

T3: His-tagged human TIGIT (human, UniProt Q495A1 22-141)
T3 construct: SPR analyte; also called human TIGIT protein; not shown: His tag
T3 sequence: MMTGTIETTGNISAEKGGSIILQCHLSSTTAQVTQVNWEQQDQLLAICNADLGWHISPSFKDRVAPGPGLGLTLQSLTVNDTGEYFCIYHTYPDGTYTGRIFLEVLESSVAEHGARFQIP


Legend:
[1] = molecular target: T1, human TIGIT expressed on CHO-K1 cells; assay: flow cytometry competition: biotinylated CD155-Fc on human TIGIT-CHO-K1 cells
[2] = molecular target: T1, human TIGIT expressed on CHO-K1 cells; assay: flow cytometry on CHO-K1 cells expressing human TIGIT
[3] = molecular target: T2, TIGIT on TIGIT-over expressing …; assay: cell-based or functional assay
[4] = molecular target: T4, cynomolgus TIGIT expressed on CHO-K1 cells (cynomolgus, UniProt A0A7N9I9V4 89-312); assay: flow cytometry on CHO-K1 cells expressing cynomolgus TIGIT
T4 construct: whole, on cells; also called cynomolgus TIGIT over-expressing cell line
T4 sequence (A0A7N9I9V4 entry or part of it): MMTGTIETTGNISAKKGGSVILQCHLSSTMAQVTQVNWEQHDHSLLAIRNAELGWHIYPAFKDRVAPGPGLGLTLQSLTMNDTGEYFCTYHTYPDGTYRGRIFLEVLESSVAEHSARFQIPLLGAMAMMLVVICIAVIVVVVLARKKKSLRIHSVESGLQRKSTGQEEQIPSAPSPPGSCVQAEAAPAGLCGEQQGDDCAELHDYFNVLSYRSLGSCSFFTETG

[5] = molecular target: T5, His-tagged cynomolgus TIGIT (cynomolgus, UniProt A0A7N9I9V4 89-209); assay: SPR (Biacore T200), antibody captured, His-tagged TIGIT analyte
T5 construct: SPR analyte; also called cynomolgus TIGIT protein; not shown: His tag
T5 sequence (A0A7N9I9V4 entry or part of it): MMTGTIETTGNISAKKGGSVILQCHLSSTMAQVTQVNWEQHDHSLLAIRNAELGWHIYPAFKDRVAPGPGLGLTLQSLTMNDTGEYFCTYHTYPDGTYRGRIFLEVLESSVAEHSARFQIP

His-tagged human TIGIT [6] = molecular target: T3, His-tagged human TIGIT; assay: as above
[7] = molecular target: T1, human TIGIT expressed on CHO-K1 cells; assay: flow cytometry on CHO-K1 cells expressing human TIGIT; remark: listed apart in the source
[8] = molecular target: T1, human TIGIT expressed on CHO-K1 cells; assay: flow cytometry competition: biotinylated CD155-Fc on human TIGIT-CHO-K1 cells; remark: listed apart in the source
[9] = molecular target: T4, cynomolgus TIGIT expressed on CHO-K1 …; assay: flow cytometry on CHO-K1 cells expressing cynomolgus TIGIT; remark: listed apart in the source
[10] = molecular target: T2, TIGIT on TIGIT-over expressing …; assay: cell-based or functional assay; remark: listed apart in the source
[11] = molecular target: T5, His-tagged cynomolgus TIGIT; assay: SPR (Biacore T200), antibody captured, His-tagged TIGIT analyte; remark: listed apart in the source
His-tagged human TIGIT [12] = molecular target: T3, His-tagged human TIGIT; assay: as above; remark: listed apart in the source
His-tagged human TIGIT [13] = molecular target: T3, His-tagged human TIGIT; assay: SPR experiment 3, IgG from HEK293 supernatant captured
His-tagged human TIGIT [14] = molecular target: T3, His-tagged human TIGIT; assay: SPR experiment 2, IgG from HEK293 supernatant captured

Row | Binder | IC50 [1] | EC50 [2] | Bottom (RLU) [3] | EC50 [3] | Top (RLU) [3] | EC50 [4] | Kd [5] | koff [5] | kon [5] | Kd (His-tagged human TIGIT [6]) | koff (His-tagged human TIGIT [6]) | kon (His-tagged human TIGIT [6]) | Kd (His-tagged human TIGIT [13]) | koff (His-tagged human TIGIT [13]) | kon (His-tagged human TIGIT [13]) | other results
1 | TIGIT-52 chimeric antibody (antibody, human IgG1, kappa, V domains shown, Full-length chimeric IgG1 kappa) VH: EVQLVESGGGLVEPGGSLTLSCVASGFTFSSFAMSWVRQTPEKRLEWVATISNGGSYTYYPDTVKGRFTISRDNAKNTLFLQMSSLRSEDTAMYYCARPYYGTTYGYYFDFWGQGTTLTVSS VL: QIVLTQSPASLAVSLGQRATISCRASESVDRNGNSFMHWYQQKPGQPPKLLIYLASNLESGVPARFSGSGSRTDFTLTIDPVEADDAATYYCQQNNEDPLTFGAGTKLELKR | 13.9 nM | 8.43 nM | 11800 RLU | > 100 nM | 14200 RLU | 7.68 nM | 0.28 nM | 6.1e-05 s⁻¹ | 220000 M⁻¹ s⁻¹ | 0.17 nM | 7.4e-05 s⁻¹ | 440000 M⁻¹ s⁻¹ |  |  |  | 
2 | TIGIT-18 chimeric antibody (antibody, human IgG1, kappa, V domains shown, Full-length chimeric IgG1 kappa) VH: QVQLQQPGAELVRPGASVKLSCKASGYSFTSYWMNWVKQRPGQGHEWIGMIHLSNSETRLNQNFLDKATLTVDKSSSTVYLQLSSPTSEDSAVYYCARERDYYGSSYFDYWGQGTTLTVSS VL: DIVMTQSPASLVVSLGQRATISCRTSQSVSTSSYSYMHWYQQKPGQPPKLLIKNASNLESGVPARFSASGSGTDFTLNIHPVEEEDAATYYCQHSWEIPRTFGGGTKLEIKR | 1.23 nM | 0.76 nM | 10400 RLU | 31.3 nM | 50600 RLU | 1.45 nM | 4.4 nM | 0.0011 s⁻¹ | 260000 M⁻¹ s⁻¹ | 0.22 nM | 9.5e-05 s⁻¹ | 430000 M⁻¹ s⁻¹ |  |  |  | 
3 | TIGIT-63 chimeric antibody (antibody, human IgG1, kappa, V domains shown, Full-length chimeric IgG1 kappa) VH: DVQLVESGGGLVQPGGSLSLSCAASGFTFTDYYMNWVRQPPGKALEWLGFIRNKANGYTTEYSASVKGRFTISRDNSQSILYLQMNALRAEDSATYYCARSTAWYFDVWGTGTTLTVSS VL: DIQMTQSPASLSASVGGTVTITCRASEHIYSYLAWYQQKQGKSPQLLVYNAKTLAEGVPSRFSGSGSGTQFSLKINSLQPKDFGSYYCQHHYGNPLTFGAGTKLELKR | 2.32 nM | 1.12 nM | 11200 RLU | 46.8 nM | 28700 RLU | 1.92 nM | 3.4 nM | 0.00049 s⁻¹ | 140000 M⁻¹ s⁻¹ | 2.5 nM | 0.00062 s⁻¹ | 250000 M⁻¹ s⁻¹ |  |  |  | 
4 | TIGIT-87 chimeric antibody (antibody, human IgG1, kappa, V domains shown, Full-length chimeric IgG1 kappa) VH: EVKLVESGPELVKPGASMKISCKASGYSFTGYTMNWVKQSHGKNLEWIGLINPYNGGTSYNQKFKGKATLTVDKSSSTAYMELLSLTSEDSAVYYCARYANRFENWFAYWGQGTLVTVSS VL: DIQMTQSPASLSASVGETVTITCRASENIYSYLAWYQQKQGKSPQLLVYNAKTLAEGVPSRFSGSGSGTQFSLKINSLQPEDFGSYYCQHHYGTPWTFGGGTKLEIKR | 0.53 nM | 0.4 nM | 9300 RLU | > 100 nM | 17000 RLU | 0.81 nM | 47 nM | 0.063 s⁻¹ | 1.3e+06 M⁻¹ s⁻¹ | 0.63 nM | 0.0012 s⁻¹ | 2e+06 M⁻¹ s⁻¹ |  |  |  | 
5 | Hu1217-2-2 (anti-TIGIT positive control antibody) (antibody, V domains shown) VH: EVQLVESGGGLVQPGGSLRLSCAASGFTFSDYYMYWVRQAPGKGLEWVAYITKGGGSTYYPDSVKGRFTISRDNAKNTLYLQMNSLRAEDTAVYYCARQTNYDFTMDYWGQGTLVTVSS VL: EIVMTQSPATLSVSPGERATLSCKASQDVGTSVAWYQQKPGQAPRLLIYWASARHTGIPARFSGSGSGTEFTLTISSLQSEDFAVYYCQQYSSYPLTFGGGTKVEIK | 0.81 nM | 0.46 nM | 10500 RLU | 15.6 nM | 51700 RLU |  | 280 nM | 0.044 s⁻¹ | 160000 M⁻¹ s⁻¹ | 0.11 nM | 0.00013 s⁻¹ | 1.2e+06 M⁻¹ s⁻¹ |  |  |  | EC50 [7]: 0.65 nM; IC50 [8]: 0.62 nM; EC50 [9]: 43 nM; Bottom (RLU) [10]: 52900 RLU; EC50 [10]: 11.1 nM; Top (RLU) [10]: 163000 RLU; Kd [11]: 470 nM; koff [11]: 0.063 s⁻¹; kon [11]: 130000 M⁻¹ s⁻¹; Kd (His-tagged human TIGIT [12]): 0.051 nM; koff (His-tagged human TIGIT [12]): 5.1e-05 s⁻¹; kon (His-tagged human TIGIT [12]): 1e+06 M⁻¹ s⁻¹
6 | reshaped TIGIT-3 antibody 3VH3 + 3VL1.M3 (antibody, V domains shown, Full-length IgG, tested as HEK293 supernatant) VH: EVQLVESGGGLVQPGGSLRLSCAASGFTFSSYGMSWVRQAPGKGLELVATIKSDGGSTNLPDSVKGRFTISRDNSKNTLYLQMNSLRAEDTAVYYCVRGYFDYWGQGTTVTVSS VL: DIQMTQSPSSLSASVGDRVTITCKASQDVKTAVAWYQQKPGKVPKLLIYWASTRHSGVPSRFSGSGSGTDFTLTISSLQPEDVATYYCQQYYSTPYTFGGGTKVEIK |  |  |  |  |  |  |  |  |  |  |  |  | 46 nM | 0.0089 s⁻¹ | 190000 M⁻¹ s⁻¹ | 
7 | huTIGIT-6-3 (antibody, human IgG1, kappa, V domains shown, Humanized IgG; also called 6VH6.M6 + 6VL1.M1) VH: QVQLVQSGAEVKKPGASVKVSCKASGYTFTENAMHWVRQAPGQRLEWIGGINPNQGGTSYSQKFQGRATLTVDTSASTAYMELSSLRSEDTAVYYCTRSSYYRYDLDYWGQGTTVTVSS VL: DIQMTQSPSSLSASVGDRVTITCQASQDIKTALAWYQQKPGKAPKLLIYSASYRYTGVPSRFSGSGSGTDFTFTISSLQPEDIATYYCHQHYTTPWTFGGGTKLEIKR |  |  |  |  |  |  |  |  |  |  |  |  |  |  |  | EC50 [7]: 1.11 nM; Kd (His-tagged human TIGIT [14]): 0.64 nM; koff (His-tagged human TIGIT [14]): 0.00017 s⁻¹; kon (His-tagged human TIGIT [14]): 270000 M⁻¹ s⁻¹; IC50 [8]: 1.1 nM; EC50 [9]: 8.2 nM; Bottom (RLU) [10]: 49400 RLU; EC50 [10]: 11.1 nM; Top (RLU) [10]: 135000 RLU; Kd [11]: 130 nM; koff [11]: 0.0078 s⁻¹; kon [11]: 61000 M⁻¹ s⁻¹; Kd (His-tagged human TIGIT [12]): 0.29 nM; koff (His-tagged human TIGIT [12]): 9.8e-05 s⁻¹; kon (His-tagged human TIGIT [12]): 340000 M⁻¹ s⁻¹

Now from value to binder, other results behind:

Row | IC50 [1] | EC50 [2] | Bottom (RLU) [3] | EC50 [3] | Top (RLU) [3] | EC50 [4] | Kd [5] | koff [5] | kon [5] | Kd (His-tagged human TIGIT [6]) | koff (His-tagged human TIGIT [6]) | kon (His-tagged human TIGIT [6]) | Kd (His-tagged human TIGIT [13]) | koff (His-tagged human TIGIT [13]) | kon (His-tagged human TIGIT [13]) | Binder | other results
8 | 0.82 nM | 0.55 nM | 4520 RLU | > 100 nM | 11700 RLU |  | 29 nM | 0.012 s⁻¹ | 420000 M⁻¹ s⁻¹ | 6.6 nM | 0.014 s⁻¹ | 2.2e+06 M⁻¹ s⁻¹ |  |  |  | TIGIT-100 chimeric antibody (antibody, human IgG1, kappa, V domains shown, Full-length chimeric IgG1 kappa) VH: QVQLQQPGPELVKPGASVKISCKASGYSFTDYNMNWVKQSNGKSLEWIGVINPNSGTDNYNQKFKGKATLTVDQSSSTAYMQLNSLTSEDSAVYFCARGVYFGNYFDSWGQGTTLTVSS VL: DIVMTQSPASLSASVGETVTITCRASENIYSSLAWYQQKQGKSPQLLVFNAKTLTEGVPSRFSGSGSGTQFSLKINSLQPEDFGSYYCQHHYGAPWTFGGGTKLEIKR | 
9 |  |  |  |  |  |  |  |  |  |  |  |  | 55 nM | 0.012 s⁻¹ | 230000 M⁻¹ s⁻¹ | reshaped TIGIT-3 antibody 3VH3 + 3VL1.M4 (antibody, V domains shown, Full-length IgG, tested as HEK293 supernatant) VH: EVQLVESGGGLVQPGGSLRLSCAASGFTFSSYGMSWVRQAPGKGLELVATIKSDGGSTNLPDSVKGRFTISRDNSKNTLYLQMNSLRAEDTAVYYCVRGYFDYWGQGTTVTVSS VL: DIQMTQSPSSLSASVGDRVTITCKASQDVKTAVAWYQQKPGKVPKLLIYWASTRQSGVPSRFSGSGSGTDFTLTISSLQPEDVATYYCQQYYSTPYTFGGGTKVEIK | 
10 |  |  |  |  |  |  |  |  |  |  |  |  | 17 nM | 0.0038 s⁻¹ | 230000 M⁻¹ s⁻¹ | reshaped TIGIT-3 antibody 3VH3 + 3VL1.M1 (antibody, V domains shown, Full-length IgG, tested as HEK293 supernatant) VH: EVQLVESGGGLVQPGGSLRLSCAASGFTFSSYGMSWVRQAPGKGLELVATIKSDGGSTNLPDSVKGRFTISRDNSKNTLYLQMNSLRAEDTAVYYCVRGYFDYWGQGTTVTVSS VL: DIQMTQSPSSLSASVGDRVTITCRASQDIKTALAWYQQKPGKVPKLLIYWSSTRHTGVPSRFSGSGSGTDFTLTISSLQPEDVATYYCQQYYSTPYTFGGGTKVEIK | 
